Reference: patent EP4552657A1, “RADIOPHARMACEUTICAL COMPLEXES AND COMBINATIONS” (priority 2023, dated 2025)

Key:
[1] = molecular target: CEACAM5 coated on M270-carboxy Dynabeads (UniProt P06731); experiment: IRF assay on CEACAM5-coated M270-carboxy Dynabeads, 100 µg beads
[2] = molecular target: CEACAM5 coated on M270-carboxy Dynabeads (UniProt P06731); experiment: IRF assay on CEACAM5-coated M270-carboxy Dynabeads, 33 µg beads
[3] = molecular target: CEACAM5 coated on M270-carboxy Dynabeads (UniProt P06731); experiment: IRF assay on CEACAM5-coated M270-carboxy Dynabeads, 333 µg beads
[4] = molecular target: human recombinant DLL3 antigen (human) (UniProt Q9NYJ7); experiment: IRF assay on recombinant human DLL3 coated M-270-carboxy Dynabeads, 10 µg beads
Sequence of human recombinant DLL3 antigen (human) (Q9NYJ7 27-492 limits assumed): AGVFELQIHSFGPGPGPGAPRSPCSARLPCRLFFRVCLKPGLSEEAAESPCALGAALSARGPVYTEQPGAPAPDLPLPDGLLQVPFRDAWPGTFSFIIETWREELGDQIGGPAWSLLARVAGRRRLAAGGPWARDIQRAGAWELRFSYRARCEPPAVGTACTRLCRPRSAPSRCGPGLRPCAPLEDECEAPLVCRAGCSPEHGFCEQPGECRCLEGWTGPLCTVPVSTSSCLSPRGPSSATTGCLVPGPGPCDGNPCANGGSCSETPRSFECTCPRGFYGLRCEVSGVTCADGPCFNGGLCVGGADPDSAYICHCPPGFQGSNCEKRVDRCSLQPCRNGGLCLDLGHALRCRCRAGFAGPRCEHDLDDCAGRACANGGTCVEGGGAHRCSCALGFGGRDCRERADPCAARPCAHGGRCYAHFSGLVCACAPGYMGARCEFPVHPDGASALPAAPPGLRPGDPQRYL

Sequence of CEACAM5 coated on M270-carboxy Dynabeads (P06731 35-685 limits assumed): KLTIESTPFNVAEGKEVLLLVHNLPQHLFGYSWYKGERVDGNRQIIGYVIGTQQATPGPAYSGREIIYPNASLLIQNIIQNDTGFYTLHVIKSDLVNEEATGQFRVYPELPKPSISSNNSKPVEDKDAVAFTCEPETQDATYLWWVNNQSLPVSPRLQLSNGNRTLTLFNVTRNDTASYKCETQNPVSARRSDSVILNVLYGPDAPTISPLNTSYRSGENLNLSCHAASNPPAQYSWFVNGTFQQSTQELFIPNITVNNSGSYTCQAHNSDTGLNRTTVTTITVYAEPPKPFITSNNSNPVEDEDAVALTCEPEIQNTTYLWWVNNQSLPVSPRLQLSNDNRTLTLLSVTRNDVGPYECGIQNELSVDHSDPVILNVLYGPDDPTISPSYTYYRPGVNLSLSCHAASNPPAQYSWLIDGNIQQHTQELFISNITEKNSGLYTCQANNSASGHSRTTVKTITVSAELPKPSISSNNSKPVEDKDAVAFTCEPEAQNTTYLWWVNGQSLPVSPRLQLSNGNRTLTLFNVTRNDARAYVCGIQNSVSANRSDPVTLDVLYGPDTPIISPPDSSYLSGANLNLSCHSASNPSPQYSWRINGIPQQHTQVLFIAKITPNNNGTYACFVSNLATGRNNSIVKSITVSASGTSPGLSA

| Substance | IRF (immunoreactive fraction) [1] [%] | IRF (immunoreactive fraction) [2] [%] | IRF (immunoreactive fraction) [3] [%] | maximum binding (IRF) [4] [%] |
| --- | --- | --- | --- | --- |
| Ac-225-macropa-Labetuzumab (antibody) | 88 | 43 | 97 | – |
| Ac-225-macropa-Rovalpituzumab (antibody) | – | – | – | 86 |
